What follows are binders tested against acetylcholine receptor (assay: SPR, AchR on CM5 chip, peptide 10 µM).

Row | Binding affinity (RU) | Binder
1 | 25 | KKTTGR [6mer-1-1196]
2 | 33 | KKPTNK [6mer-1-1193]
3 | 29 | KKCMKR [6mer-1-1190]
4 | 40 | KKCHWR [6mer-1-1189]
5 | 21 | KRPMAK [6mer-1-1197]
6 | 36 | RKDDDR [6mer-1-1192]
7 | 22 | KKTHAK [6mer-1-1194]
8 | 39 | RKYTKK [6mer-1-1191]
9 | 25 | KRDEDK [6mer-1-1195]

The binders below were run against acetylcholine receptor (assay: SPR, acetylcholine receptor on CM5 chip, peptide 10 µM).

Row | Binder | Binding affinity (RU)
10 | KQFCKK [6mer-2-538] | 125
11 | RQIYRR [6mer-2-542] | 148
12 | RWQRKK [6mer-2-536] | 125
13 | KGQCRK [6mer-2-541] | 126
14 | KWYTKK [6mer-2-539] | 127
15 | KLFCRR [6mer-2-535] | 133
16 | KRLTRR [6mer-2-540] | 142
17 | KVLCKR [6mer-2-537] | 153

More lines, now with the values ahead:

Row | Binding affinity (RU) | Binder
18 | 125 | KLYCRK [6mer-2-545]
19 | 142 | RLQCRR [6mer-2-548]
20 | 148 | RSFTKK [6mer-2-550]
21 | 141 | KWYTKR [6mer-2-551]
22 | 142 | KQLCKK [6mer-2-549]
23 | 135 | RWQCKR [6mer-2-547]
24 | 148 | RSICKK [6mer-2-556]
25 | 127 | RVFTKK [6mer-2-546]
26 | 121 | RWRCRR [6mer-2-554]
27 | 147 | KVIQKR [6mer-2-544]
28 | 148 | RGLLRR [6mer-2-552]
29 | 154 | RSVSKK [6mer-2-555]
30 | 124 | RSLQKK [6mer-2-553]
31 | 144 | RRQYRR [6mer-2-543]
